Test results: US20080207668A1, “PHARMACEUTICAL COMPOSITIONS OF HYD[…] PREVENTION OF OVERDOSE OR ABUSE” (New River Pharmaceuticals Inc., priority 2006, published 2008)
Structures can show the parent of a compound that is named as a salt. Residues, ends and D or L forms follow the SMILES beside them. *: point of attachment. X5 = CC(=O)Oc1ccc2c3c1O[C@H]1C(O*)=CC[C@H]4[C@@H](C2)N(C)CC[C@]314; X2 = CN1CC[C@]23c4c5ccc(O)c4O[C@H]2C(O*)=CC[C@H]3[C@H]1C5

Tests used:
[1] = Oral bioavailability of hydromorphone conjugates (plasma hydromorphone after oral gavage); details: rat, relative to hydromorphone control
[2] = Intranasal bioavailability of hydromorphone conjugates (plasma hydromorphone after intranasal dosing); type: in vivo, male Sprague-Dawley rats; details: rat, relative to hydromorphone control
Procedure: Oral, and intranasal bioavailability studies of hydromorphone and hydromorphone conjugates were conducted in male Sprague-Dawley rats. Doses of hydromorphone hydrochloride and hydromorphone conjugates containing equivalent amounts of hydromorphone were administered in deionized water. Oral administration was in 0.5 ml by gavage needle. Intranasal doses were administered by placing 20 microliters into the nasal flares of rats anesthetized with isoflurane. Plasma was collected by retroorbital sinus puncture under isoflurane anesthesia. hydromorphone were determined by LC/MS/MS.
Male Sprague-Dawley rats were provided water ad libitum and doses were administered by placing 0.02 ml of water containing hydromorphone conjugates or hydromorphone […] into the nasal flares. All doses contained equivalent amounts of hydromorphone base. Plasma hydromorphone concentrations were measured by ELISA (hydromorphone, 102919, Neogen, Corporation, Lexington, Ky.) and/or LC/MS. The assay is specific for hydromorphone. These examples illustrate that hydromorphone conjugates decrease the peak level (Cmax) and total absorption (AUC) of hydromorphone as compared to those produced by equimolar (hydromorphone base) doses of hydromorphone HCl when given by the intranasal route of administration.
The following Tables include Hydromorphone amino acid and peptide HCl salt conjugates that were synthesized and tested. Both oral and intranasal bioavailabilities were measured. The bold values are the “corrected values”, that were calculated based on the bioavailability of the control (HM).

Structure (SMILES) | Oral AUC % (corrected value based on bioavailability of control HM) [1] [%] | Oral Cmax % (corrected value based on control HM) [1] [%] | IN AUC % (corrected value based on bioavailability of control HM) [2] [%] | IN Cmax % (corrected value based on control HM) [2] [%]
CC(C)[C@H](NC(=O)[C@H](Cc1ccc(O)cc1)NC(=O)[C@@H](N)Cc1ccc(O)cc1)C(=O)OC1=CC[C@H]2[C@H]3Cc4ccc(O)c5c4[C@@]2(CCN3C)[C@H]1O5 [YYV-HM] | 30 | 53 | 73 | 73
CC[C@H](C)[C@H](NC(=O)[C@H](Cc1ccccc1)NC(=O)[C@H](Cc1ccccc1)NC(=O)[C@H](Cc1ccc(O)cc1)NC(=O)[C@@H](N)Cc1ccc(O)cc1)C(=O)OC1=CC[C@H]2[C@H]3Cc4ccc(O)c5c4[C@@]2(CCN3C)[C@H]1O5 [YYFFI-HM] (H-YYFFI-X2) | 40 | 52 | 4 | 7
CC(C)[C@H](NC(=O)CNC(=O)CN)C(=O)OC1=CC[C@H]2[C@H]3Cc4ccc(O)c5c4[C@@]2(CCN3C)[C@H]1O5 [GGV-HM] | 53 | 63 | 51 | 73
CC(C)[C@H](NC(=O)[C@H](CCCCN)NC(=O)[C@@H](N)CCCCN)C(=O)OC1=CC[C@H]2[C@H]3Cc4ccc(O)c5c4[C@@]2(CCN3C)[C@H]1O5 [KKV-HM] | 43 | 60 | 75 | 89
CC[C@H](C)[C@H](NC(=O)[C@H](CCC(=O)O)NC(=O)[C@@H](N)CCC(=O)O)C(=O)OC1=CC[C@H]2[C@H]3Cc4ccc(O)c5c4[C@@]2(CCN3C)[C@H]1O5 [EEI-HM] | 56 | 73 | 59 | 88
CC(C)[C@H](NC(=O)[C@H](Cc1ccccc1)NC(=O)[C@@H](N)Cc1ccccc1)C(=O)OC1=CC[C@H]2[C@H]3Cc4ccc(O)c5c4[C@@]2(CCN3C)[C@H]1O5 [FFV-HM] | 8 | 36 | 98 | 103
CC(C)C[C@H](NC(=O)[C@H](Cc1ccccc1)NC(=O)[C@@H](N)Cc1ccccc1)C(=O)OC1=CC[C@H]2[C@H]3Cc4ccc(O)c5c4[C@@]2(CCN3C)[C@H]1O5 [FFL-HM] | 11 | 24 | 92 | 96
CC(C)C[C@H](NC(=O)CNC(=O)CN)C(=O)OC1=CC[C@H]2[C@H]3Cc4ccc(O)c5c4[C@@]2(CCN3C)[C@H]1O5 [GGL-HM] | 22 | 43 | 52 | 85
CC[C@H](C)[C@H](NC(=O)[C@H](CCCCN)NC(=O)[C@@H](N)CCCCN)C(=O)OC1=CC[C@H]2[C@H]3Cc4ccc(O)c5c4[C@@]2(CCN3C)[C@H]1O5 [KKI-HM] | 24 | 56 | 68 | 85
CC(C)C[C@H](NC(=O)[C@H](CCCCN)NC(=O)[C@@H](N)CCCCN)C(=O)OC1=CC[C@H]2[C@H]3Cc4ccc(O)c5c4[C@@]2(CCN3C)[C@H]1O5 [KKL-HM] | 24 | 50 | 87 | 96
CC[C@H](C)[C@H](NC(=O)[C@@H]1CCCN1C(=O)[C@@H]1CCCN1)C(=O)OC1=CC[C@H]2[C@H]3Cc4ccc(O)c5c4[C@@]2(CCN3C)[C@H]1O5 [PPI-HM] | 21 | 60 | 77 | 95
CC(C)C[C@H](NC(=O)[C@H](CCC(=O)O)NC(=O)[C@@H](N)CCC(=O)O)C(=O)OC1=CC[C@H]2[C@H]3Cc4ccc(O)c5c4[C@@]2(CCN3C)[C@H]1O5 [EEL-HM] | 27 | 49 | 84 | 98
CC(C)C[C@H](NC(=O)[C@@H]1CCCN1C(=O)[C@@H]1CCCN1)C(=O)OC1=CC[C@H]2[C@H]3Cc4ccc(O)c5c4[C@@]2(CCN3C)[C@H]1O5 [PPL-HM] | 22 | 45 | 53 | 70
CC(C)[C@H](NC(=O)[C@H](CCC(=O)O)NC(=O)[C@@H](N)CCC(=O)O)C(=O)OC1=CC[C@H]2[C@H]3Cc4ccc(O)c5c4[C@@]2(CCN3C)[C@H]1O5 [EEV-HM] | 21 | 50 | 31 | 70
CC[C@H](C)[C@H](NC(=O)[C@H](Cc1ccccc1)NC(=O)[C@@H](N)Cc1ccccc1)C(=O)OC1=CC[C@H]2[C@H]3Cc4ccc(O)c5c4[C@@]2(CCN3C)[C@H]1O5 [FFI-HM] | 18 | 47 | 79 | 92
CC[C@H](C)[C@H](NC(=O)[C@H](Cc1ccccc1)NC(=O)[C@H](Cc1ccccc1)NC(=O)[C@H](Cc1ccc(O)cc1)NC(=O)[C@@H](N)Cc1ccc(O)cc1)C(=O)OC1=CC[C@H]2[C@H]3Cc4ccc(OC(C)=O)c5c4[C@@]2(CCN3C)[C@H]1O5 [YYFFI-HM-OAc] (H-YYFFI-X5) | 29 | 40 | 59 | 72
CN1CC[C@]23c4c5ccc(O)c4O[C@H]2C(OC(=O)[C@H](Cc2ccccc2)NC(=O)[C@H](Cc2ccccc2)NC(=O)[C@H](Cc2ccccc2)NC(=O)[C@H](CCC(=O)O)NC(=O)[C@@H](N)CCC(=O)O)=CC[C@H]3[C@H]1C5 [EEFFF-HM, Glu2-Phe3-Hydromorphone.Dihydrochloride] (H-EEFFF-X2) | 79 | 78 | 52 | 57
CC(C)C[C@H](NC(=O)[C@H](Cc1ccc(O)cc1)NC(=O)[C@@H](N)Cc1ccc(O)cc1)C(=O)OC1=CC[C@H]2[C@H]3Cc4ccc(O)c5c4[C@@]2(CCN3C)[C@H]1O5 [YYL-HM] | 12 | 30 | 74 | 75
CC[C@H](C)[C@H](NC(=O)CNC(=O)CN)C(=O)OC1=CC[C@H]2[C@H]3Cc4ccc(O)c5c4[C@@]2(CCN3C)[C@H]1O5 [GGI-HM] | 17 | 32 | 24 | 66
CC(C)[C@H](NC(=O)[C@@H]1CCCN1C(=O)[C@@H]1CCCN1)C(=O)OC1=CC[C@H]2[C@H]3Cc4ccc(O)c5c4[C@@]2(CCN3C)[C@H]1O5 [PPV-HM] | 24 | 55 | 71 | 101
CC[C@H](C)[C@H](NC(=O)[C@H](Cc1ccc(O)cc1)NC(=O)[C@@H](N)Cc1ccc(O)cc1)C(=O)OC1=CC[C@H]2[C@H]3Cc4ccc(O)c5c4[C@@]2(CCN3C)[C@H]1O5 [YYI-HM] | 32 | 66 | 88 | 86
